These results are taken from patent US20200147161A1 (University of Texas, published 2020).

Assay [1] addresses T1, HLA-A2 on T2 cells (human).
T1 construct: The text of the assay says only 'HLA-A2'; also called HLA-A2 allele
Put plainly: HLA-A2 stabilisation on T2 cells, 18 hr, flow cytometry, fluorescence index. As for the experimental part: The predicted peptides were synthesized and co-cultured with T2 cells with a series of diluted concentrations. DMSO without peptide or with the same concentration of negative binding to HLA-A2 peptide were used as control. After 18 hr incubation, the HLA-A2 expression was detected by flow cytometer. The fluorescence index (FI) was calculated as follows: FI=(mean fluorescence with the given peptide−mean fluorescence without peptide)/(mean fluorescence without peptide). […] The VCX54 epitope is found in all members of the VCX/Y family including VCX1, VCX2, VCX3A, VCX3B, or VCY which are expressed in various lung cancer cells (FIG. 1B).
On the technique in general: A flow cytometer gives signals particle by particle.

In assay [2] the target is T2, VCY; VCY-37 peptide peptide on HLA-A*02:01 (human).
T2 peptide: KVAEKGEAV
Description: multimer staining.

Assay [3] addresses T3, VCX/Y family (VCX1, VCX2, VCX3A, VCX3B, VCY); VCX54 peptide peptide on HLA-A*02:01 (human).
T3 peptide: GAATKMAAV
Description: multimer staining.

Assay [4] addresses T1, HLA-A2 on T2 cells. Description: HLA-A2 stabilisation on T2 cells, 18 hours, flow cytometry, FI index. As for the experimental part:
The peptides were synthesized and pulsed with T2 cells with a series of diluted concentrations for 18 hours. After incubation, the HLA-A2 expression level of T2 was detected by flow cytometry and the FI index was calculated. The M27 peptide was used as a weak binding peptide control and the M26 peptide was used as a strong binding peptide control.

B1: VCX54 peptide (GAATKMAAV) (peptide)
peptide: GAATKMAAV
notes: Synthetic 9-mer shared by all VCX/Y family members; added to T2 cells in the HLA-A2 stabilisation assay; also called GAATKMAAV (54)
On to B1, for which the binding result in assay [1] is given as “binds”.

B2: VCY-37 CTL TCR (TCR, V domains shown)
Valpha: AQKVTQAQTEISVVEKEDVTLDCVYETRDTTYYLFWYKQPPSGELVFLIRRNSFDEQNEISGRYSWNFQKSTSSFNFTITASQVVDSAVYFCALSLLSYNTDKLIFGTGTRLQVFP
Vbeta: DTGVSQDPRHKITKRGQNVTFRCDPISEHNRLYWYRQTLGQGPEFLTYFQNEAQLEKSRLLSDRFSAERPKGSFSTLEIQRTEQGDSAMYLCASSTPGPSGANVLTFGAGSRLTVL
With B2, the binding result in assay [2] is listed as “recognises”.

B3: VCX54 CTL Clone-7 TCR (TCR, V domains shown)
Valpha: AQKITQTQPGMFVQEKEAVTLDCTYDTSDPSYGLFWYKQPSSGEMIFLIYQGSYDQQNATEGRYSLNFQKARKSANLVISASQLGDSAMYFCAMITSGNTGKLIFGQGTTLQVKP
Vbeta: AAGVIQSPRHLIKEKRETATLKCYPIPRHDTVYWYQQGPGQDPQFLISFYEKMQSDKGSIPDRFSAQQFSDYHSELNMSSLELGDSALYFCASSPPGGGRTEAFFGQGTRLTVV
As for B3, the binding result in assay [3] is “recognises”.
For KVAEKGEAV (Synthetic 9-mer from VCY) [VCY-37 peptide (KVAEKGEAV)], the binding result in assay [4] is recorded as “binds”.
The same measure, in the same setting: the value for KMAAVEAPEA (Synthetic 10-mer) [VCX-58 peptide (KMAAVEAPEA)] was “binds”.
